Biological target: cLUC-SlPIF4 (tomato (Solanum lycopersicum))
Assay: split reporter (BiFC, NanoBiT); split luciferase complementation: cLUC-SlPIF4 and nLUC-SlDELLA co-expressed in N. benthamiana leaves for 2 days; 1 mM D-luciferin; camera and microplate luminometer

Chain of cLUC-SlPIF4 (tomato (Solanum lycopersicum)) (main, as listed by the source): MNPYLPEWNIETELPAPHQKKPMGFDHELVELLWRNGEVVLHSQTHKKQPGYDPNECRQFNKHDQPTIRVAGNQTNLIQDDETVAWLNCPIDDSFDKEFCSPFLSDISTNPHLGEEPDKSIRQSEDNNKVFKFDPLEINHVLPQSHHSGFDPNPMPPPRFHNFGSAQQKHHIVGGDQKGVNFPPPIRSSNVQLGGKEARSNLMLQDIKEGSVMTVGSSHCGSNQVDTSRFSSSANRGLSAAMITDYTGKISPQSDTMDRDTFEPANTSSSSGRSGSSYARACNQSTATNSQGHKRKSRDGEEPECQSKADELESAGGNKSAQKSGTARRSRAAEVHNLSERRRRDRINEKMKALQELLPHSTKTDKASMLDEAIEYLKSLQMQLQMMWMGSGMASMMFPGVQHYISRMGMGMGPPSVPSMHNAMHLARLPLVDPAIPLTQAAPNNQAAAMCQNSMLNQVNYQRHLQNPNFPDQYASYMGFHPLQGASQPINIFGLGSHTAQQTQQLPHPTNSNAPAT

luciferase activity, fold over the control co-expressing cLUC and nLUC (times the control): 170
Substance: nLUC-SlDELLA (natural protein)

— article PMC11384114
